Tests used:
[1] = tested on: T1, Ac-LRRASLGGGGC (SEQ ID NO: 9)
T1 sequence: LRRASLGGGGC

[2] = tested on: T2, Ac-IYAAPKKGGGGC (SEQ ID NO: 8)
T2 sequence: IYAAPKKGGGGC

[3] = target: PKA kinase (Homo sapiens, UniProt P17612); assay: Quantitative analysis of inhibitory reaction against kinase on gold nanoparticle-peptide chip by secondary ion mass spectrometry; assay type: biochemical; settings: ATP 10 μM, kinase 1 U, 30° C. for 2 hours, non-linear regression
Description: As one example for analyzing an inhibitory reaction against kinase activity, the effect of 4-cyano-3-methylisoquinoline (CMIQ, Sigma), an inhibitor against PKA kinase, was illustrated.
After silicon rubber having circular holes (3 mm diameter and 1 mm height) was attached to the surface of a slide glass (75×25 mm) consisting of a glass substrate, a gold nanoparticle-peptide chip was constructed in each of the holes according to the method of Examples 1-(3).
CMIQ was dissolved in a minimum amount of distilled water to prepare solutions having varying CMIP concentrations of 0.1 nM, 0.5 nM, 1 nM, 5 nM, 10 nM, 50 nM, 100 nM, 500 nM, 1 μM and 5 μM, and each of the solutions was mixed with kinase, was introduced into the gold nanoparticle-peptide chip formed in the holes and was allowed to react at 30° C. for 2 hours. In this reaction, the concentration of ATP was 10 μM, and the concentration of kinase used was 1 U. Since the amount of the peptide attached to the surface would generally be constant, the ATP and kinase concentrations were determined as concentrations at which the maximum enzyme reaction occurred.
The choice of the peaks before and after phosphorylation is not limited thereto, and peaks changed by phosphorylation as shown in FIG. 2 may all be applied. […]
More specifically, the values of Ap1 and Ap2 in the two reference samples, that is, the gold nanoparticle-peptide chip before treatment with kinase and the gold nanoparticle-peptide chip after phosphorylation, would be different depending on the intensity of ions. Thus, to correct this difference, percent phosphorylation was calculated according to the following equation 1: […]
In order to calculate percent inhibition, substitution from the percent phosphorylation value calculated in the equation 1 is made. […] More specifically, after the phosphorylation level at each concentration of the inhibitor is calculated, percent inhibition can be calculated according to the following equation 2: […]

n (exponent of equation 3) [3] | IC50 ([3]; equation 3) [nM] | Imax (percent inhibition at which the maximum inhibitory effect of the inhibitor occurs) ([3]; equation 3) [%] | Compound | SIMS chemical imaging of the phosphorylated peptide ion on microarray spots [1] | change of the peptide mass peak (SIMS) on a chip carrying both peptides [1] | SIMS chemical imaging of the phosphorylated peptide ion on microarray spots (2 nM Abl, 100 uM ATP) [2] | change of the peptide mass peak (SIMS) on a chip carrying both peptides [2] | phosphorylation of the chip-bound peptide, seen as a mass change in secondary ion mass spectrometry [2] | SIMS chemical imaging of the phosphorylated peptide ion on microarray spots (50 nM PKA, 100 uM ATP) [1] | SIMS chemical imaging of the phosphorylated peptide ion on microarray spots [2]
 |  |  | Abl kinase (Calbiochem) | No cross-images of kinases against opposite peptides were observed | the AbI kinase and the PKA kinase did not influence the mass peaks of other peptides | kinase-treated spots (line 1 and 2) yielded strong ion mass images (i.e. [PAblH-SH-COOH+HPO3]+ or [PPKAH-SH-COOH+HPO3]+) | only the mass signals of peptides specific for the kinases were changed | the phosphorylation of the peptide occurred |  | 
0.9996 | ~87 | 100 | Cc1ncc2ccccc2c1C#N [CMIQ, 4-cyano-3-methylisoquinoline] |  |  |  |  |  |  | 
 |  |  | PKA kinase |  | only the mass signals of peptides specific for the kinases were changed |  | the AbI kinase and the PKA kinase did not influence the mass peaks of other peptides |  | kinase-treated spots (line 1 and 2) yielded strong ion mass images (i.e. [PAblH-SH-COOH+HPO3]+ or [PPKAH-SH-COOH+HPO3]+) | No cross-images of kinases against opposite peptides were observed

— patent US7951572B2, “Construction of gold nanoparticle-based peptide chip, and assaying enzyme activity and inhibitor effect using secondary ion mass spectrometric analysis thereof” (Korea Advanced Institute of Science and Technology, priority 2006, dated 2011)
